Data reported in patent US6143719A, “Bradykinin analogs as selective thrombin inhibitors” (The Regents of the University of Michigan, priority 1996, dated 2000).

Tests used:
[1] = water solubility of synthesized peptides; format: physicochemical
α-thrombin = α-thrombin (Homo sapiens, UniProt P00734); experiment: α-thrombin cleavage of thrombin receptor peptide NAT12 (HPLC); format: biochemical; parameters: cleavage product peak 3, share of NAT12 peak 1 area / cleavage product peak 2, share of NAT12 peak 1 area: dose or concentration left out as unconfirmed
Procedure: A further study was performed to determine whether BK analogs prevent α-thrombin from cleaving the thrombin receptor reported by Vu et al., Cell 64, 1057 (1991). A peptide, NAT12 (SEQ ID NO:2), which spans amino acids […] of the α-thrombin cleavage site on the thrombin receptor, was used to determine whether the BK analogs described herein blocked α-thrombin cleavage of the cloned receptor.
The cleavage study was performed according to the method of Molino et al., J. Biol. Chem. 270,11168(1995),inwhichNAT12(SEQ ID NO:2) was dissolved in a solution of 0.01 M NaH2 PO4 and 0.15 M NaCl, pH 7.4. […] Following incubation, each mixture was separated by applying the mixture to a Vyadec C-18 HPLC column in 0.1% trifluoroacetic acid and eluting the mixture with a gradient from 0% to 100% of 80% MeCN and 0.1% trifluoroacetic acid. The size of the separated products were confirmed by mass spectrometry.

human platelets = format: cell-based; settings: FIG. 2, concentration not given
Procedure: The cytoplasmic free Ca^2+ concentration ([Ca^2+ ]i) was measured using the fluorescent Ca^2 + indicator fura-2 (Molecular Probes, Inc., Eugene, Oreg.). Gel filtered platelets in Hepes-Tyrode's buffer were loaded with fura-2 by incubation at 37° C. with 1 μM fura-2/acetoxymethyl ester for 45 min according to the method of Rasmussen et al., J. Biol. Chem. 268, 14322 (1993). The labeled platelets were then re-gel filtered to remove any excess probe. Aliquots of the labeled platelet suspension were transferred into a quartz cuvette with a magnetic stirrer, which was then placed in a thermostatically controlled chamber at 37° C. in a fluorescence spectrophotometer (Dual Wave Length Shimazdu SP5000 Spectrofluorometer, Shimazdu USA, Pittsburgh, Pa.). Reagents were directly added to the cuvette. The excitation wave lengths varied between 340 and 380 nm. The fluorescence was measured by recording emitted light at 510 nm as reported by Fisher et al, Mol. Pharm. 35, 195 (1989). The minimum emission was determined on a 20 mM digitonin, 10 mM EGTA solubilized platelet sample; maximum emission was determined on the same sample with 10 mM Ca^2+ added. The intraplatelet free Ca^2+ concentration was calculated by the method of Grykiewicz et al., J. Biol. Chem. 260, 3440 (1985). The ratio of the fluorescence readings was calculated as R=340/380 nm and processed according to the equation [Ca^2+ ]i =KD ((R-Rmin)/Rmax -R))(Sf2 /Sb2) to determine the intraplatelet free Ca^2+ concentration. The KD for fura-2 was assumed to be 224 nM. Rmax and Rmin are the maximum and minimum fluorescence ratios measured at the end of the experiment, respectively; Sf2 and Sb2 are the fluorescence values at 380 nm in the absence and presence of saturating [Ca^2+ ], respectively.

[2] = procoagulant activity of purified HK; parameters: species or system human; settings: HK purified from plasma
Procedure: HK was purified from plasma by a modification of the procedures of Johnson et al., Thromb. Res. 48, 187 (1987) and Muller-Esterl et al., Methods Enzymol 163, 240 (1987). One hundred ml of 1 mM DFP-treated fresh frozen plasma was thawed at 37° C., to which 10 mM benzamidine-HCI, 40 μg/ml Polybrene, 2 mM EDTA, 0.2 mM PMSF, 0.2 mg/ml soybean trypsin inhibitor, 100 U/ml aprotinin and 2 M NaCl were added according to the method of Schmaier et al., Methods in Enzymology 169, 276 (1989). The treated plasma was then applied to a 2.5×20 cm column of CM-papain-SEPHAROSE 4B equilibrated in 50 mM phosphate buffer containing 2 M NaCl, 1 mM benzamidine-HCl, 40 μg/mL Polybrene, 0.2 mM PMSF, 0.02% (w/v) NaN3, pH 7.5. The CM-papain-SEPHAROSE 4B column was prepared by the procedure of Johnson et al., Thromb Res. 48, 187 (1987). HK and LK were eluted in a single peak after the addition of a 50 mM phosphate buffer solution containing 2 mM EDTA and 0.02% (w/v) NaN3, pH 11.5. Five ml fractions were collected into tubes containing 0.25 ml of a solution consisting of 4 mM PMSF in 1 M sodium acetate, pH 4.2 to bring the final pH to 6.0. The fractions containing HK and LK were then applied to a reactive Blue-Sepharose column (Sigma Chemical Corp, St. Louis, Mo.) equilibrated with 0.01 M sodium acetate pH 6.8 by the methods reported by Hasan et al., J. Biol. Chem. 269, 31822 (1994). […]

washed platelets = experiment: 125I-α-thrombin binding to platelets; parameters: species or system human; settings: 200 nM HK
Procedure: Gel filtered platelets were placed into polypropylene tubes and diluted with Hepes-Tyrode's buffer, containing 2 mM CaCl2 and 50 μM ZnCl2 and additions, to a final concentration of 2×10^8 platelets/ml. The reaction was started by the addition of 1 nM ^125 I-α-thrombin, which was prepared by using the iodogen technique as reported by Meloni et al., J. Biol. Chem. 266, 6786 (1991). Incubations were performed at 37° C. for specified times with various additions. After incubation, 50 μl aliquots were removed in triplicate for each experimental point and placed in polypropylene microcentrifuge tubes with an extended tip containing 200 μl of an oil mixture which consisted of 1 part Apiezon A oil to 9 parts of n-butylphthalate (Gustafson et al., J. Clin. Invest. 78, 810 (1986)), and centrifuged at room temperature for 2 min at 10,900× g in a microcentrifuge. (Model E, Beckman Instruments, Palo Alto, Calif.) The supernatant was removed and the tips amputated for placement in the gamma counter. The radioactivity present in the cell pellet was determined with an LKB Rack Gamma Counter (LKB Instruments, Inc., Gaithersburg, Md.). Nonspecific binding was measured in the presence of a 100-fold molar excess of α-thrombin.

Molecule	water solubility [1]	cleavage product peak 2, share of NAT12 peak 1 area (α-thrombin)	cleavage product peak 3, share of NAT12 peak 1 area (α-thrombin)	reduction of NAT12 peak 1 area after α-thrombin (α-thrombin; 8 nM α-thrombin)	inhibition of α-thrombin-induced calcium mobilization (human platelets)	specific activity (procoagulant activity) [2]	inhibition of 125I-α-thrombin binding to platelets (washed platelets)
SEQ ID NO:15: synthesized hydrophobic peptide, sequence not printed (NATFYFKIDNVKKARVQVVAGKKYFI)	hydrophobic requiring 0.01% DMSO in order to solubilize it	–	–	–	–	–	–
HK: human high molecular weight kininogen purified from plasma (protein, UniProt P01042 19-644, looked up, high molecular weight kininogen) Kininogen-1: QESQSEEIDCNDKDLFKAVDAALKKYNSQNQSNNQFVLYRITEATKTVGSDTFYSFKYEIKEGDCPVQSGKTWQDCEYKDAAKAATGECTATVGKRSSTKFSVATQTCQITPAEGPVVTAQYDCLGCVHPISTQSPDLEPILRHGIQYFNNNTQHSSLFMLNEVKRAQRQVVAGLNFRITYSIVQTNCSKENFLFLTPDCKSLWNGDTGECTDNAYIDIQLRIASFSQNCDIYPGKDFVQPPTKICVGCPRDIPTNSPELEETLTHTITKLNAENNATFYFKIDNVKKARVQVVAGKKYFIDFVARETTCSKESNEELTESCETKKLGQSLDCNAEVYVVPWEKKIYPTVNCQPLGMISLMKRPPGFSPFRSSRIGEIKEETTVSPPHTSMAPAQDEERDSGKEQGHTRRHDWGHEKQRKHNLGHGHKHERDQGHGHQRGHGLGHGHEQQHGLGHGHKFKLDDDLEHQGGHVLDHGHKHKHGHGHGKHKNKGKKNGKHNGWKTEHLASSSEDSTTPSAQTQEKTEGPTPIPSLAKPGVTVTFSDFQDSDLIATMMPPISPAPIQSDDDWIPDIQIDPNGLSFNPISDFPDTTSPKCPGRPWKSVSEINPTTQMKESYYFDLTDGLS	–	14%	18%	32%	inhibited	11-22 U/mg	able to inhibit
